The values that follow come from PMC7156724, “Potent BRD4 inhibitor suppresses cancer cell-macrophage interaction” (Nature Communications, 2020).

Series [1] is described as follows: in vitro. Conditions: CD-1, mouse. Here is the method:
(§1) The concentration was calculated using the peak area ratio of analyte and internal […]
(§2) The results were calculated by the following equations:
(§3) % Unbound = 100 *FC / TC, % Bound = 100 * (1-FC / TC)
(§4) % Recovery = 100 * (FC + TC) / T0
(§5) TC = Total compound concentration as determined by the calculated concentration on the retentate side of the membrane
(§6) FC = Free compound concentration as determined by the calculated concentration on the dialysate side of the membrane […]
(§7) Equation of first order kinetics: […]
(§8) 8. Equilibrium dialysis assay. Binding with plasma protein and recovery rate of NHWD-870 were performed with human, CD-1 mouse and SD rat plasma as […]
(§9) described 2. […] The concentration was […]
(§10) calculated using the peak area ratio of analyte and internal standard. The results were calculated by the following equations: % Unbound = 100 *FC / TC, % Bound = 100 * (1-FC / TC); % Recovery = 100 * (FC + TC) / T0; TC = Total compound concentration as determined by the calculated concentration on the retentate side of the membrane; FC = Free compound concentration as determined by the (1 picture or pasted object on this page, not shown here) […]
(§11) calculated concentration on the dialysate side of the membrane; T0 = To t a l compound concentration as determined before dialysis. […]
(§12) 10. hERG channel assay. […]
(§13) HEK293 cell line stably

A short description of series [2]: in vitro. As to conditions: human. The protocol: as §1, §2, §3, §4, §5, §6, §7, §8, §9, §10, §11, §12, §13
A short description of series [3]: in vitro. Conditions: SD, rat. Here is the method: as §1, §2, §3, §4, §5, §6, §7, §8, §9, §10, §11, §12, §13
In series [4] the test system is TAMs. Briefly: Number of TAMs after treatment with CSF1. The format is cell-based, mouse. Here is the method:
Fig. 6 CSF1/CSF1R signaling is critical for the tumor inhibitory effects of NHWD-870 and CSF1 induced ovarian cancer growth depends on macrophages. a Number of TAMs after treatment with the indicated concentration of CSF1 for 48 h. Data are presented as mean ± SEM from three independent experiments. b–d Schematics of the experiments (b). A2780 cells (pre-treated with DMSO or 100 nM NHWD-870 for 48 h) were seeded into the top chamber (transwell size: 0.4 μm), and TAMs (Mac, 40,000 cells per 24-well) in medium with PBS or 10 ng/ml CSF1 (c), or 50 ng/ml IgG or anti-CSF1R antibodies (d), were seeded into the bottom chamber. Shown are quantification of TAMs (c, d). Data are presented as mean ± SEM from three independent experiments. e Representative western blot analysis of A2780 cells stably transfected with CSF1 or empty vector (EV). Selected from three independent experiments. f Schematics of the animal experiments using an orthotopic mouse OC model, established by intraperitoneally injecting 1 × 10^6 (g–j) or 2 × 10^6 (k–m) human A2780 cells overexpressing CSF1 or control into female recipient nude mice. Mice were then treated with/without liposomal clodronate (LC) for 45 days (g–j) or treated with/without NHWD-870 (PO, QD, 3 mg/kg) for 37 days (k–m). g Increased mouse body weight was measured at the indicated time points (day 0-45 after LC treatment). h–j Net tumor weight (h), ascitic fluid volumes (i) tumor implantations in peritoneum, omentum and pevic cavity (j) were measured at day 45 from LC treatment. k–m Net tumor weight (k), ascitic fluid volumes (l) tumor implantations in peritoneum, omentum and pevic cavity (m) were measured at day 37 after NHWD-870 treatment. For g–m, data are presented as mean ± SEM from five different mice. p values were calculated using two-tailed, unpaired t tests in this figure. n.s, not significant; *p < 0.05; **p < 0.01; and ***p < 0.001. Source data are provided as a Source Data file. […]

For series [5], the system named is PI3K/AKT1 and ERK phosphorylation. Briefly: Western blot of p-PI3K, p-AKT1 and p-ERK in TAMs. The series is classed as cell-based, mouse. The protocol: Supplementary Figure 13. NHWD-870 inhibited CSF1/CSF1R signaling pathw ay to reduce TAM […]
TA M s ( 2 ×10^5 cells) (treated with or without 10 ng/ml CSF1 and 100 nM NHWD-870 for 48 h) were seeded into the 6-well bottom chamber, in the presence or absence of A2780 cells (pre-treated with or without 100 nM NHWD-870 for 48 h) seeded into the top chamber (transwell size: 0.4μm). Shown are schematics of the experiment and representative western blot analysis of the indicated proteins (a), and quantification of the relative levels of p-PI3K, p-AKT1 and p-ERK over their respective total protein (b). Data are presented as mean ± SEM from 3 independent experiments. p values were calculated using two-tailed, unpaired t tests. n.s, no significant; **, p<0.01; ***, p<0.001. Source data are provided as a Source Data file. […]
4. Protein extraction and w estern blot anal ysis. Freshly dissected unfixed tissue was homogenized in lysis buffer. The lysates were centrifuged at 13,000g for 10 minutes at 4°C. Supernatants were collected and determined with a Bradford Protein Assay kit (Bio-Rad, Hercules, CA). The cell lysates were subjected to SDS-PAGE followed by immunoblotting (Immobilon P; Millipore, Milford, MA) with specific antibodies followed by detection using an enhanced chemilumine scence kit (Amersham Life Science, Arlington Heights, IL). […]
For orientation: A western blot detects proteins with antibodies after separation by electrophoresis.

For series [6], the system named is TAMs. Briefly: Transwell co-culture of pretreated A2780 cells and TAMs with CSF1 or anti-CSF1R antibodies. As to conditions: 10 ng/ml CSF1. The series is classed as cell-based, mouse. Here is the method:
Fig. 6 CSF1/CSF1R signaling is critical for the tumor inhibitory effects of NHWD-870 and CSF1 induced ovarian cancer growth depends on macrophages. a Number of TAMs after treatment with the indicated concentration of CSF1 for 48 h. Data are presented as mean ± SEM from three independent experiments. b–d Schematics of the experiments (b). A2780 cells (pre-treated with DMSO or 100 nM NHWD-870 for 48 h) were seeded into the top chamber (transwell size: 0.4 μm), and TAMs (Mac, 40,000 cells per 24-well) in medium with PBS or 10 ng/ml CSF1 (c), or 50 ng/ml IgG or anti-CSF1R antibodies (d), were seeded into the bottom chamber. Shown are quantification of TAMs (c, d). Data are presented as mean ± SEM from three independent experiments. e Representative western blot analysis of A2780 cells stably transfected with CSF1 or empty vector (EV). Selected from three independent experiments. f Schematics of the animal experiments using an orthotopic mouse OC model, established by intraperitoneally injecting 1 × 10^6 (g–j) or 2 × 10^6 (k–m) human A2780 cells overexpressing CSF1 or control into female recipient nude mice. Mice were then treated with/without liposomal clodronate (LC) for 45 days (g–j) or treated with/without NHWD-870 (PO, QD, 3 mg/kg) for 37 days (k–m). g Increased mouse body weight was measured at the indicated time points (day 0-45 after LC treatment). h–j Net tumor weight (h), ascitic fluid volumes (i) tumor implantations in peritoneum, omentum and pevic cavity (j) were measured at day 45 from LC treatment. k–m Net tumor weight (k), ascitic fluid volumes (l) tumor implantations in peritoneum, omentum and pevic cavity (m) were measured at day 37 after NHWD-870 treatment. For g–m, data are presented as mean ± SEM from five different mice. p values were calculated using two-tailed, unpaired t tests in this figure. n.s, not significant; *p < 0.05; **p < 0.01; and ***p < 0.001. Source data are provided as a Source Data file.
CD45^+CD11b^+F4/80^+ TAMs were isolated from peritoneal metastasis of A2780 tumor-bearing mice and cultured in RPMI-1640 supplemented with 10% FBS, 1% penicillin/streptomycin, and 0–50 ng/ml CSF1 (R&D Systems) as indicated according to standard protocols. In the cancer cell-macrophage co-culture experiments, CSF1 was not added. In the transwell (Corning, pore size, 0.4 μm) co-culture experiments, tumor cells were placed into the upper chamber, and TAMs were seeded into the lower chamber.

Series [7] concerns TAMs. Nature of the series: Ki67 FACS of TAMs induced by CSF1. The series is classed as cell-based, mouse. Conditions: CSF1 treatment. Here is the method:
Flow cytometry analyses were performed using antibodies listed in Supplementary Table 8. For cell surface markers, mouse TAM suspensions were stained with mouse APC-CD45, FITC-CD11b, PE-F4/80 or APC-F4/80, CD68, and PE-CD206 antibodies for 15 min on ice. For Ki67 staining, cells were fixed in 4% paraformaldehyde and stained with FITC-Ki67. Isotype matching antibody served as the negative control. Flow cytometry was performed on a FACSCalibur (BD Biosciences). Data were analyzed with BD CellQuest Pro software version 5.1.
Supplementary Figure 14. NHWD-870 and BRD4 deletion partially inhibite d prolifera tion of TAMs […]
(a) CD45+CD11b+F4/80 + TAMs in the orthotopic B16 melanoma model were harvested from tumors. Shown are representative FACS plots of TAMs. (b,c) Representative FACS plots (b) and quantification (c) of Ki67+ macrophages treated with 50 ng/ml CSF1, and DMSO or 25 or 50 nM NHWD-870. […]
TAMs induced by CSF1. (a-c) CD11b+F4/80+ macrophages in the orthotopic B16F10 melanoma model were harvested from tumor tissues. Shown are representative CD45+, CD11b+, F4/80+ FACS plots (a) and quantification of the percentage of Ki67+ cells after treatment with DMSO or NHWD-870 dependent on CSF1 stimulation (b,c). (d-g) FACS plots and quantification of the percentage of Ki67+ cells after CRISPR/Cas9-mediated BRD4 knockout (d,e) and c-MYC knockout (f,g) in CD11b+F4/80+ macrophages. CSF1 is added at the indicated concentration.
Please also see response to comment # 4 about our 2D assays, in which we used colony number to quantify the number of TAMs.
NHWD-870 treatment and the main differences are colony size.
6. For comparison purposes, it would be a good idea to compare the direct effect of NHWD-870 on in […]
marrow derived macrophage proliferation and gene expression in vitro). […]

Setting [8] is: CSF1 treatment, individual replicates, Ctrl about 1.

Several values for one entry are separate records, joined by “and”; a condition that tells them apart may be missing. Equal values may be shown once. Bounds are passed on as bounds.

Regarding `CC(=O)CC(c1ccccc1)c1c(O)c2ccccc2oc1=O` (stereo not drawn) [Warfarin, reference compound], the recovery turned out to be 99.2% in “in vitro [1]”, 90.2% in the series “in vitro [2]” and 86.8% in “in vitro [3]”.

B1: CSF1: macrophage colony-stimulating factor, purchased from R&D Systems (protein, UniProt P09603 33-554, looked up)
Macrophage colony-stimulating …: EEVSEYCSHMIGSGHLQSLQRLIDSQMETSCQITFEFVDQEQLKDPVCYLKKAFLLVQDIMEDTMRFRDNTPNAIAIVQLQELSLRLKSCFTKDYEEHDKACVRTFYETPLQLLEKVKNVFNETKNLLDKDWNIFSKNCNNSFAECSSQDVVTKPDCNCLYPKAIPSSDPASVSPHQPLAPSMAPVAGLTWEDSEGTEGSSLLPGEQPLHTVDPGSAKQRPPRSTCQSFEPPETPVVKDSTIGGSPQPRPSVGAFNPGMEDILDSAMGTNWVPEEASGEASEIPVPQGTELSPSRPGGGSMQTEPARPSNFLSASSPLPASAKGQQPADVTGTALPRVGPVRPTGQDWNHTPQKTDHPSALLRDPPEPGSPRISSLRPQGLSNPSTLSAQPQLSRSHSSGSVLPLGELEGRRSTRDRRSPAEPEGGPASEGAARPLPRFNSVPLTDTGHERQSEGSFSPQLQESVFHLLVPSVILVLLAVGGLLFYRWRRRSHQEPQRADSPLEQPEGSPLTQDDRQVELPV
Regarding B1, in the series on TAMs [4] (48 h), the “proliferation of TAMs” value is on record as “increased proliferation of TAMs in a dose-dependent manner”. Besides, in the series with TAMs [4] (CSF1 10), the “Number of TAMs (Fig.6a)” value is 15.5 and 19.7 and 20.1. In addition, in the series on TAMs [4] (CSF1 50), the “Number of TAMs (Fig.6a)” value is 45.6 and 59.6 and 67.2. The “PI3K/AKT1 and ERK phosphorylation in TAMs” value in series [5] (10 ng/ml CSF1) is “induced PI3K/AKT1 and ERK phosphorylation”. Further, in series [5] (setting [8]), the “p-AKT1 (Sup Fig.13b quantification)” value was 7.5 and 6.3 and 5.51; the “p-ERK (Sup Fig.13b quantification)” value is 3.68 and 4.51 and 5.3; the “p-PI3K (Sup Fig.13b quantification)” value was 3.62 and 4.72 and 3.2. Further, the “rescue of TAM proliferation in co-culture with NHWD-870 pretreated A2780 cells” value with TAMs [6] is recorded as “partially rescue the inhibitory effects of NHWD-870”. Moreover, the “fold induction of TAM proliferation” value with TAMs [7] is given as > 10 fold.
